The values below are quoted from earlier work in publication PMC7955094.

One data set deals with His37 (UniProt position 37, IIGILHLILWI). The conditions noted are these: AM2 tetramer.
A further data set concerns the target His19 (UniProt position 19, ILSALHFMAWT). The conditions noted are these: membrane-bound H27A BM2 tetramer.

As to “Influenza A virus M2 protein (AM2) proton channel (Influenza A virus (strain not stated))”, the pKa in the data set with His37 is 5.9.

As to “Influenza B virus M2 protein (BM2) H27A mutant (Influenza B virus (strain of the quoted study not stated); H27A)”, the pKa with His19 is on record as 5.6.
